Assay: yeast display, Sf9 membrane polyspecificity reagent, FACS + sequencing; frameworks hold sequencing errors
Outline: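 In a synthetic yeast display library (Saccharomyces cerevisiae BJ5465), nanobody expression was induced with galactose for 36–48 hours. FACS gates were set low and high (top ~1%) using anti-HA fluorescence for expression and streptavidin fluorescence for binding of the Sf9 membrane reagent. Each polyreactivity label is drawn from the gate of origin.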
With “QVQLVESGGGLVQAGGSLRLSCAASGSTFGSYAMGWYRQAPGKERELVAGISWSGGRTYYADSVKGRFTISRDNAKNTVYLQMNSLKPEDTAVYYCARDTGYYYARYNYWGQGTQVTVSS” the “polyreactivity (PSR sort gate)” value was “low polyreactivity”. With “QVQLVESGGGLVQAGGSLRLSCAASGSTFGSYARGWYRPAPGKERELVAAISRTGGSTRYADSVKGRFTISRDNAQNSVYFQMNSLKPEDSAVYYCNARLSSYSTIRGVYWGQGTQVTVSS” the “polyreactivity (PSR sort gate)” value was “high polyreactivity”. For “QVQLVESGGGLVQAGGSLRLSCAASGSTFGTYAMGWYRQAPGKERELVAAISSGDSTTYADSVKGRFTISRDNAKNTVYLQMNSLKPEDTAVYYCAARTFLMRNGGYNYWGQGTQVTVSS”, the “polyreactivity (PSR sort gate)” value was “low polyreactivity”. In the case of “QVQLVESGGGLVQAGGSLRLSCAASGSTFGTYAMGWYRQAPGKERELVAAITSGGSTDYADSVKGRFTISRDNAKNTVYLQMNSLKPEDTAVYYCNATWELLSYYYLFWGYDYWGQGTQVTVSS”, the “polyreactivity (PSR sort gate)” value is reported as “low polyreactivity”. With “QVQLVESGGGLVQAGGSLRLSCAASGSTFGVNAMGWYRQAPGKERELVAAIRSAVPTYYADSVKGRFTISRDNAKNTVYLQMNSLKPEDTAVYYCAKRWSAKYGFYYWGQGTQVTVSS” the “polyreactivity (PSR sort gate)” value was “high polyreactivity”. With “QVQLVESGGGLVQAGGSLRLSCAASGSTFGVNAMGWYRQAPGKERELVATISRGTSTNYADSVKGRFTISRDNAKNTVYLQINSLKPEDTAVYYCAKRVFYPGAYRYYYWGQGTQVTVSS” the “polyreactivity (PSR sort gate)” value was “high polyreactivity”. For “QVQLVESGGGLVQAGGSLRLSCAASGSTFGVNAMGWYRQAPGKERELVAVITRSGGSTYYADSVKGRFTISRDNAKNTVYLQMNSLKPEDTAVYYCAKSGVVDWGQGTQVTVSS”, the “polyreactivity (PSR sort gate)” value was “low polyreactivity”. In the case of “QVQLVESGGGLVQAGGSLRLSCAASGSTFGVNAMGWYRQAPGTERELVADISVRTDSTYYADSVKGRVTISRDNAKNTVYLQMNSLKAEDTAVYYCNAGLGIEYDYWGQGTQVSVSS”, the “polyreactivity (PSR sort gate)” value is reported as “low polyreactivity”. In the case of “QVQLVESGGGLVQAGGSLRLSCAASGSTFGVYAMGWYRQAPGKEREFVAAISSSDGSTYYADSVKGRFTISRDNAKNTVYLQMNSLKPEDTAVYYCAKRGGYIYYAVTFTAEHGYWGQGTQVTVSS”, the “polyreactivity (PSR sort gate)” value is reported as “low polyreactivity”. In the case of “QVQLVESGGGLVQAGGSLRLSCAASGSTFGVYAMGWYRQAPGKERELVAAISGSGAGTYYADSVKGRFTISRDNAKNTVYLQMNSLKPEDTAVYYFNKVSVRGQRYGYWGQGTQVTVSS”, the “polyreactivity (PSR sort gate)” value is reported as “high polyreactivity”. With “QVQLVESGGGLVQAGGSLRLSCAASGSTFGVYGMGWYRQAPGKERELVASITSDGNTNYADSVKGRFTISRDNAKNTVYLQMNSLKPEDTAVYYCNTVGIQALYDYWGQGTQVTVSS” the “polyreactivity (PSR sort gate)” value was “low polyreactivity”. For “QVQLVESGGGLVQAGGSLRLSCAASGSTFGWYAMGWYRQAPGKEREFVAAISWSGTSTYYADSVKGRFTISRDNAKNTVYLQMNSLKPEDTAVYYCNARSKRANRSLGLGYWGQGTQVTVSS”, the “polyreactivity (PSR sort gate)” value was “low polyreactivity”. For “QVQLVESGGGLVQAGGSLRLSCAASGSTFGWYTMGWYRQAPGKERELVAAITSRGTRTSYADSVKGRFTISRDYAKNTVYLQMNSLKPEDTAVYYCAARVFRGLGEYYWGQGTQVTVSS”, the “polyreactivity (PSR sort gate)” value was “high polyreactivity”. For “QVQLVESGGGLVQAGGSLRLSCAASGSTFGYAMGWYRQAPGKEREMVAAITSTGGSTYYADSVKGRFTISRDNAKNTVYVQMHSLKPEDTAVYYCAAQVGRGYEVYPVYKYGYWGQGTQVTVSS”, the “polyreactivity (PSR sort gate)” value was “high polyreactivity”. In the case of “QVQLVESGGGLVQAGGSLRLSCAASGSTFGYNAMGWDRQAPGKERELVAAITGNDGTTYYADSVKGRFTISRDNAKNSVYLQMNSLKPEDSAVYYCAARPYLGYIGYEYWGQGTQVTVSS”, the “polyreactivity (PSR sort gate)” value is reported as “low polyreactivity”. With “QVQLVESGGGLVQAGGSLRLSCAASGSTFGYNAMGWYRQAPGKERELVAAISNGSDRTYYADSVKGRFTISRDNAKNTVYLQMNSLKPEDTAVYYCAKDRDFSSPPTESGFDYWGQGTQVTVSS” the “polyreactivity (PSR sort gate)” value was “low polyreactivity”. In the case of “QVQLVESGGGLVQAGGSLRLSCAASGSTFGYNAMGWYRQAPGKERELVAAISRGGRITYYADSVKGRFTISRDNAKNTVYLQMNSLKQEDTAVYNCAARVQWRGYGYYYWGQGTQVTVSS”, the “polyreactivity (PSR sort gate)” value is reported as “high polyreactivity”. With “QVQLVESGGGLVQAGGSLRLSCAASGSTFGYNAMGWYRQAPGKERELVAAISRSGGRTYYADSVKGRFTISRDNAKNTVYLQMNSLKPEDTAVYYCATYYTNKVPARYYWGQGTQVTVSS” the “polyreactivity (PSR sort gate)” value was “high polyreactivity”. With “QVQLVESGGGLVQAGGSLRLSCAASGSTFGYNAMGWYRQAPGKERELVAGIRSSGGSTYYADSVKGRFTISRDNAKNTVYLQMNSLKTEDTAVSYCNTRRRRNEKMYYWGQGTQVTVSS” the “polyreactivity (PSR sort gate)” value was “high polyreactivity”. With “QVQLVESGGGLVQAGGSLRLSCAASGSTFGYNAMGWYRQAPGKERELVARITSSGGSTYYADSVKGRFTISRDNAKNTVYLQMNSLKPEDTAVYYCAAGYPYRAVYRYYYWGQGTQVTVSS” the “polyreactivity (PSR sort gate)” value was “high polyreactivity”. For “QVQLVESGGGLVQAGGSLRLSCAASGSTFGYNAMGWYRQAPGKERELVASITWSSGSTYYADSVKGRFTISRDNAKNTVYLQMNSLKPEDTAVYYCAADVEYWSYEFNYWGQGTQVTVSS”, the “polyreactivity (PSR sort gate)” value was “low polyreactivity”. For “QVQLVESGGGLVQAGGSLRLSCAASGSTFGYNDMGWYRQAHGKERELVAVIDSGGSTNYADSVKGRFTISRDNAKNTVYLQMNSLKPEDTAVYYCAADRDKGNGADVWYGYDYWGQGTQVTVSS”, the “polyreactivity (PSR sort gate)” value was “low polyreactivity”. In the case of “QVQLVESGGGLVQAGGSLRLSCAASGSTFGYNGMGWFRQAPGKERELVAAISGGARTYADSVKGRFTISRDNAKNTVYLQMNSLKPEDTAVYYCAAGVFHIFSRGNYDPSEYEYWGQGTQVTVSS”, the “polyreactivity (PSR sort gate)” value is reported as “low polyreactivity”. With “QVQLVESGGGLVQAGGSLRLSCAASGSTFGYYAMGWDRQAPGKERELVAAISRRVGSTYYADSVKGRFTISRDNAKNTVSLQMNSLNPEDTAVYYWASTSVNPWRGDYDMYYWGQGTQVTVSS” the “polyreactivity (PSR sort gate)” value was “high polyreactivity”. In the case of “QVQLVESGGGLVQAGGSLRLSCAASGSTFGYYAMGWSRQAPGKEREFVAAITYGDGNTYYADSVKGRFTISRDNAKNTVYLQMNRLKREDTEVYYCAKYYWGPTGAHGGYGYWGQGTQVTVCS”, the “polyreactivity (PSR sort gate)” value is reported as “low polyreactivity”. For “QVQLVESGGGLVQAGGSLRLSCAASGSTFGYYAMGWYRPAPGKERELVAAISSSAGTTYYADSVKGCFTISRDNAKNTVYLLMNRLKPEDTAVFYCAADAVSGHEYWGQGTQVTVSS”, the “polyreactivity (PSR sort gate)” value was “low polyreactivity”. With “QVQLVESGGGLVQAGGSLRLSCAASGSTFGYYAMGWYRQAPGKERELVAAIRWCGGSTYADSVKGRFTISRDNAKNTVYLQMNSLKPEDTEVYYCAQYRWYGSVLGGYWGQGTQVTVSS” the “polyreactivity (PSR sort gate)” value was “high polyreactivity”. For “QVQLVESGGGLVQAGGSLRLSCAASGSTFGYYAMGWYRQAPGKERELVAAISGSGGSTYYADSVKGRFTISRDNAKNTVYLQMNSLKPEDTAVYYCAATFHRLPKWGSPYYYWGQGTQVTVSS”, the “polyreactivity (PSR sort gate)” value was “high polyreactivity”. For “QVQLVESGGGLVQAGGSLRLSCAASGSTFGYYAMGWYRQAPGKERELVAAISKRGGSTYYADSVKGRFTISRDNAKNTVYLQMNSLKPEDTAVYYCAAAPYKYPGDYWGQGTQVTVSS”, the “polyreactivity (PSR sort gate)” value was “high polyreactivity”. For “QVQLVESGGGLVQAGGSLRLSCAASGSTFGYYAMGWYRQAPGKERELVAAISVRGGRTYYADSVKGRFTISRDNAKNTVYLQMNSLKPEDTAVYYCATLLPGLGRYGYDYWGHGTQVTVSS”, the “polyreactivity (PSR sort gate)” value was “high polyreactivity”. In the case of “QVQLVESGGGLVQAGGSLRLSCAASGSTFGYYAMGWYRQAPGKERELVAAITRGGGRTYYADSVKGRFTISRDNAKNTVYLQMNSLKPEDTAVYYCAAVEPTREYYYWGQGTQVTVSS”, the “polyreactivity (PSR sort gate)” value is reported as “high polyreactivity”. With “QVQLVESGGGLVQAGGSLRLSCAASGSTFGYYAMGWYRQAPGKERELVAAITSSGGSTYYSDSVKGRFTISRDNAKNTVYLQMYSMNPEDTAVYDCNTRWCFYIDPFYYEYDYWGQGSQVTVSS” the “polyreactivity (PSR sort gate)” value was “low polyreactivity”. In the case of “QVQLVESGGGLVQAGGSLRLSCAASGSTFGYYAMGWYRQAPGKERELVATITKRGGSTYADSVKGRFTISRDNAKNTVYLQMNSLKPEDTAVYYCAKLPFEDYDYWGQGTQVTVSS”, the “polyreactivity (PSR sort gate)” value is reported as “low polyreactivity”. With “QVQLVESGGGLVQAGGSLRLSCAASGSTFGYYAMGWYRQAPGKERELVATITWSGGSTNYADSVKGRFTISRDNAKNTVYLQMNSLKPEDTAVYYCAADLKYWYFGLAFIEVDYWGQGTQVTVSS” the “polyreactivity (PSR sort gate)” value was “low polyreactivity”. With “QVQLVESGGGLVQAGGSLRLSCAASGSTFGYYAMGWYRQAPGKESELVAAISAGGGSTYYADSVKGRFTISRDNAKNTVYLQLNSLKPEDTAVYFCAARRPHMPVKTYDYWGQGTLVTVSS” the “polyreactivity (PSR sort gate)” value was “high polyreactivity”. For “QVQLVESGGGLVQAGGSLRLSCAASGSTFGYYARGWYRQAPGKERELVAAISWSGTRTYYADSVKGRFTISRDNATNTVYLQMNSLKPEDTAVYYCAVRISRPRVYYYWGQGTQVTVSS”, the “polyreactivity (PSR sort gate)” value was “high polyreactivity”. In the case of “QVQLVESGGGLVQAGGSLRLSCAASGSTFGYYGMGWYRQAPGKERELVAAISTGGRTNYADSVKGRFTISRDNAKNTVYLQMNSLKPEVTAVYYCAADFLCTAYRPSWYRFDYWGQGTQVTVSS”, the “polyreactivity (PSR sort gate)” value is reported as “low polyreactivity”. For “QVQLVESGGGLVQAGGSLRLSCAASGSTFGYYTKGWYRQAPGKERELVAAITWSGGSTYYADSVKGRFTISRDNAKNTVYLQMNSLKPEDTAVYYCAADDYWTPFGYWGQGTQVTVSS”, the “polyreactivity (PSR sort gate)” value was “low polyreactivity”. In the case of “QVQLVESGGGLVQAGGSLRLSCAASGSTFGYYTMGWYRQAPGKERELVAAISRSGGRTYYADSVKGRFTISRDNAKNAVYLQMNSLKPEDTAVYYCNADGTRYAGDDYWGQGTQVTVSS”, the “polyreactivity (PSR sort gate)” value is reported as “high polyreactivity”. In the case of “QVQLVESGGGLVQAGGSLRLSCAASGSTFGYYTMGWYRQAPGKERELVAAISYSGGRTFYADSVKGRFTISRDNAKNTVFLQMHCLKPEDTAVYYCNNRYIPSFLSHLDYWGQGTHVTVSS”, the “polyreactivity (PSR sort gate)” value is reported as “high polyreactivity”. With “QVQLVESGGGLVQAGGSLRLSCAASGSTFHFYAMGWYRQAPGKERELVASITSRGGNTHYADSVKGRFTISRDNAKNTVYLQMNRLKPEDTAVYYCAARGGWYGTYDYLGQGTQVTVSS” the “polyreactivity (PSR sort gate)” value was “low polyreactivity”. In the case of “QVQLVESGGGLVQAGGSLRLSCAASGSTFHGYALGWYRQAPGKERELVAAISWSGGRTYYADSVKGRFTISRDNAKNTVYLQMNSLKPEDTAVYYCNKDGYYRWQSTYLANRYDYWGQGTQVTVSS”, the “polyreactivity (PSR sort gate)” value is reported as “high polyreactivity”. In the case of “QVQLVESGGGLVQAGGSLRLSCAASGSTFHKYAMGWYRQAPGKEREFVAAISWSGGSTYYADSVKGRFTISRDNAKNTVYLQMNSLKPEDTAVYYCAAKGGVSRARWRSIFWHDYWGQGTQVTVSS”, the “polyreactivity (PSR sort gate)” value is reported as “high polyreactivity”.
